Among the data in article doi:10.1101/2024.05.02.592161 are copies of cargo in a T=3 shell and copies of cargo in a T=4 shell values, retold here.

This assay has as its target Mx_pmut, pore-engineered Myxococcus xanthus encapsulin shell protein (Myxococcus xanthus) (UniProt Q1D6H4). The experiment in a line: cryo-EM structure; purified Mx_pmut co-expressed with SNAP-tag-TP cargo (T=3/T=4 sample), 4.1 mg/mL, 150 mM NaCl, 25 mM Tris pH 8.0; icosahedral symmetry imposed.

Consider “SNAP-tag carrying an Mx-targeting peptide (TP) at its C-terminus”, for which the copies of cargo in a T=3 shell was 180 copies and the copies of cargo in a T=4 shell came out at 240 copies.
